Experimental findings from patent US20060134099A1 are described below.

The test deals with dog street rabies virus DRV-4. The experiment in a line: cell-based or functional assay.

B1: plant-derived human rabies monoclonal antibody MAb^P (rabies human MAb S057 expressed in transgenic (antibody, V domains shown)
VH: QVQLVQSGAEVKKPGSSVKVSCKASGGTFNRYTVNWVRQAPGQGLEWMGGIIPIFGTANYAQRFQGRLTITADESTSTAYMELSSLRSDDTAVYFCARENLDNSGTYYYFSGWFDPWGQGTLVTVSS
VL: QSALTQPRSVSGSPGQSVTISCTGTSSDIGGYNFVSWYQQHPGKAPKLMIYDATKRPSGVPDRFSGSKSGNTASLTISGLQAEDEADYYCCSYAGDYTPGVVFGGGTKLTVLG
With B1, the Virus neutralizing antibody (VNA) titer, RFFIT came out at 81 IU/ml.
